T1: Human MUC1 protein (human, UniProt P15941 1041-1153, limits assumed)
T1 construct: also called mucin1 antigen; human mucin1
T1 sequence: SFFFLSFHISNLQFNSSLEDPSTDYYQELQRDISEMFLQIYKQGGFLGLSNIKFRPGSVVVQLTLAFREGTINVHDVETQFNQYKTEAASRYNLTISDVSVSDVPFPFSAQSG

T2: C subunit of human MUC1 expressed in HEK293T cells (HEK293T-v1) (human, UniProt P15941 1098-1255, limits assumed)
T2 construct: domain: C subunit of MUC1; also called MUC1-C
T2 sequence (looked up): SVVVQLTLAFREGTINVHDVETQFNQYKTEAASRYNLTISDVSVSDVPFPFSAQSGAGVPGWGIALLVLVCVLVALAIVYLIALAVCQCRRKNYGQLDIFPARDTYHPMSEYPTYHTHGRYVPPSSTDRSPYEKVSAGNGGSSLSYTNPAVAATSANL

B1: scFv-Fc antibody including the scFv 2447_3A09 (Fc fusion)
scFv: EVQLLESGGGLVQPGRSLRLSCAATGFTFDDYAMHWVRQAPGKGLEWVSGISWNSGSIGYADSVKGRFTISRDNAKNSLYLQMNSLRAEDTASYYCAKDVSSGWYWYAFDIWGQGTLVTVSSGGGGSGGGGSGGGASSYELTQDPAVSVALGQTVRITCQGDSLRSYYASWYQQKPGQAPVLVIYGKNNRPSGIPGRFSGSSSGNTASLTVTGAQAEDEADYYCNSRDSGGSVVFGGGTKLTVL
notes: scFv-Fc format as used in the Biacore assay; not shown: Fc part (with any hinge or linker) of the scFv-Fc
B2: scFv-Fc antibody including the scFv 2447_3C08 (Fc fusion)
scFv: EVQLLESGGGLVQPGGSLRLSCAASGFTFDDYAMHWVRQAPGKGLEWVSGISWNSGSIGYADSVKGRFTISRDNAKNSLYLQMNSLRAEDTALYYCAKDRGSGYEGNYYGMDVWGQGTLVTVSSGGGGSGGGGSGGGASSYELTQDPAVSVALGQTVRITCQGDSLRSYYASWYQQKPGQAPVLVIYGKNNRPSGIPDRFSGTTSGNTASLTITGAQAEDEADYYCNSRDSSGNHYVFGTGTKVTVL
notes: as for B1
B3: scFv-Fc antibody including the positive control scFv G03 (Fc fusion)
scFv: EVQLVQSGAEVKKPGATVKISCKVSGYTFTSYWMHWVQQAPGKGLEWIGYINPGTGYIEYNQKFKDRVTITADKSTDTAYMELSSLRSEDTAVYYCASSTAPFDYWGQGTLVTVSSGGGGSGGGGSGGGASEIVLTQSPGTLSLSPGERATLSCKASQDIKSYLSWYQQKPGQAPRLLIYYATRLADGIPDRFSGSGSGTDFTLTISRLEPEDFAVYYCLQYDESPYTFGQGTKLEIK
notes: not shown: Fc part (with any hinge or linker) of the scFv-Fc
B4: scFv-Fc antibody including the scFv 2447_3H02 (Fc fusion)
scFv: EVQLLESGGGLVQPGRSLRLSCAASGFTFDDYAMHWVRQAPGKGLEWVSGISWDSGSIGYADSVKGRFTISRDNAKNSLYLQMNSLRAEDTALYYCAKDVSSGWYWYAFDIWGQGTLVTVSSGGGGSGGGGSGGGASSYELTQDPAVSVALGQTVRITCQGDILRSYYASWYQQKPGQAPVLVIYGKNNRPSGIPDRFSGSSSGNTASLTITGAQAEDEADYYCNSRDSSGNRVVFGGGTKLTVL
notes: scFv-Fc format as used in the Biacore assay; not shown: Fc part (and any hinge or linker) of the scFv-Fc
B5: scFv-Fc antibody including the scFv 2447_3A01 (Fc fusion)
scFv: EVQLLESGGGLVQPGGSLRLSCAASGFTFDDYAMHWVRQAPGKGLEWVSGISWNSGSIVYADFVKGRFTISRDNAKNSLYLQMNSLRAEDTALYYCAKDISSGWYPGTFDYWGQGTLVTVSSGGGGSGGGGSGGGASSYELTQDPAVSVALGQTVRITCQGDSLRSYYASWYQQKPGQAPVLVIYGKNNRPSGIPDRFSGSSSGNTASLTVTGAQAEDEADYYCSSRDSSDDVVFGGGTQLTVL
notes: as for B1
B6: scFv-Fc antibody including the scFv 2447_3A12 (Fc fusion)
scFv: EVQLVQSGAEVKKPGASVKVSCKASGYTFTSYGISWVRQAPGQGLEWMGWISAYNGNTNYAQKLRGRVTMTTDTSTSTAYMELRSLRSDDTAVYYCARDPHILTGYYRGGWFDPWGQGTLVTVSSGGGGSGGGGSGGGASSYELTQDPAVSVVLGQTVRITCQGDSLRSYYASWYQQKPGQAPVLVIYGKNNRPSGIPDRFSGSSSGNTASLTITGAQAEDEADYYCNSRDSSGNHRVFGGGTKLTVL
notes: as for B1
B7: scFv-Fc antibody including the scFv 2447_3H08 (Fc fusion)
scFv: EVQLLESGGGLVQPGRSLRLSCAASGFTFDDYAMHWVRQAPGKGLEWVSGISWNSGSIDYADSVKGRFTISRDNSKNTLYLQMNSLRAEDTAVYYCARDRSSGWYTGSFDYWGQGTLVTVSSGGGGSGGGGSGGGASSYELTQDPAVSVALGQTVRITCQGDSLRSYYASWYRQKPGQAPVLVIYGKNNRPSGIPDRFSGSSSGNTASLTIIGAQAEDEADYYCQSRDSSDNRVLFGGGTKVTVL
notes: as for B4
B8: scFv-Fc antibody including the scFv 2447_3A08 (Fc fusion)
scFv: EVQLVQSGAEVKKPGASVKVSCKASGYTFTSYGISWVRQAPGQGLEWMGWISAYNGNTNYAQKLQGRVTMTTDTSTSTAYMELRSLRSDDTAVYYCARDRATIFGVVTPFDYWGQGTLVTVSSGGGGSGGGGSGGGASSYELTQDPAVSVALGQTVRITCQGDSIRSYSASWYQQKPGQAPRLVIYGKNNRPSGIPDRVSGSTSGNTASLTVTGAQAEDEADYYCNSRDSSGNRVVFGGGTQLTVL
notes: as for B1
B9: scFv-Fc antibody including the scFv 2447_2H08 (Fc fusion)
scFv: EVQLVQSGAEVKKPGASVKVSCKASGYTFTNYGISWVRQAPGQGLEWMGWISAYNGNTNYAQKLQGRVTMTTDTSTSTAYMELRSLRSDDTAVYYCARDPHILTGYYRGGWFDPWGQGTTVTVSSGGGGSGGGGSGGGASSYELTQDPAVSVALGQTVTITCQGDSLRTSYAGWLQQKPGQAPVLVLYGKTSRPSGIPDRFSGSTSGNTASLTITGAQAEDEAEYFCHSRDSNDNYLEVVFGGGTKLTVL
notes: as for B1
B10: scFv-Fc antibody including the scFv 2447_3B07 (Fc fusion)
scFv: QVQLVESGGVVVQPGGSLRLSCAASGFTFDDYAMHWVRQAPGRGLEWVSLTSWDGGSTYYADSVKGRFTISRDNSKNSLYLQMNSLRAEDTALYYCAKDHSSGWYNGGMDVWGQGTMVTVSSGGGGSGGGGSGGGASSYELTQDPAVSVALGQTVRITCQGDSLRSYYASWYQQKPGQAPVLVIYGKNNRPSGIPDRFSGSSSGNTASLTITGAQAEDEADYYCNSRDSSGNHVVFGGGTKLTVL
notes: as for B1
B11: scFv 2447_3A09 (scFv)
scFv: B1 scFv
notes: also called #5
B12: scFv 2447_3C08 (scFv)
scFv: B2 scFv
B13: positive control scFv G03 (scFv)
scFv: B3 scFv
B14: scFv 2447_3A01 (scFv)
scFv: B5 scFv
B15: scFv 2447_3A12 (scFv)
scFv: B6 scFv
notes: also called #6
B16: scFv 2447_3A08 (scFv)
scFv: B8 scFv

The binders below were run against T1, Human MUC1 protein (assay: SPR, Biacore T200; scFv-Fc on anti-human IgG (Fc) CM5 chip, human MUC1 protein injected at 25-400 nM).
Description: Affinity of scFv-Fc antibody including the scFv for mucin1 antigen was measured using Biacore T200 (GE healthcare). Anti-human IgG (Fc) antibody (GE healthcare, Cat. No. BR-1008-39, final concentration of 25 ug/mL) was applied at a rate of 5 uL/min for 360 seconds on a Series S Sensor Chip CM5 (GE healthcare, Cat. No. BR-1005-30) using an Amine Coupling Kit (GE healthcare, Cat. No. BR-1000-50) and immobilized at about 5000-7000 RU.

Row | Kd [nM] | Binder
1 | 62.1 | B1
2 | 24 | B2
3 | 27.6 | B3
4 | 58.8 | B4
5 | 51.5 | B5
6 | 13.8 | B6
7 | 39.9 | B7
8 | 320 | B8
9 | 94.8 | B9
10 | 51.7 | B10

Each binder was assayed against T2, C subunit of human MUC1 expressed in … (assay: flow cytometry (PE MFI, corrected to G03 at 380 ug/mL) on HEK293T-v1 cells expressing MUC1 C subunit).
Description: The soluble scFv prepared in Example 1 was diluted 5-fold to prepare a total of 8 serial dilutions. Each serial dilution was 380 μg/mL, 76 μg/mL, 15.2 μg/mL, 3.04 μg/mL, 0.608 μg/mL, 0.1216 μg/mL, 0.02432 μg/mL, 0.004864 μg/mL. A buffer used in soluble scFv dilution and cell washing was PBS containing 2% FBS and 10 mM EDTA. Four kinds of cells were prepared at a density of 1×10⁶/mL, respectively, and put in a 96 well U-bottom cell culture plate at a density of 1×10⁵/100 μl/well, followed by centrifugation at 1500 RPM for 5 minutes. The soluble scFv prepared previously was treated in an amount of 50 μl/well. The cells were left at 4° C. for 1 hour. 150 μl/well of the cell washing buffer was added thereto and then mixed, followed by centrifugation at 1500 RPM for 5 minutes. The supernatant was discarded, and 200 μl/well of the cell washing buffer was added thereto and then mixed, followed by centrifugation at 1500 RPM for 5 minutes. A goat anti-human IgG Fc-biotin antibody (Invitrogen, A18821) was diluted 500-fold, and 50 μl/well thereof was treated. The cells were left at 4° C. for 20 minutes. 150 μl/well of the cell washing buffer was added thereto and then mixed, followed by centrifugation at 1500 RPM for 5 minutes. The supernatant was discarded, and 200 μl/well of the cell washing buffer was added thereto and then mixed, followed by centrifugation at 1500 RPM for 5 minutes. PE-Streptavidin (BD Pharmigen, 554061) was diluted 1000-fold, and 50 μl/well thereof was treated. The cells were left at 4° C. for 20 minutes. 150 μl/well of the cell washing buffer was added thereto and then mixed, followed by centrifugation at 1500 RPM for 5 minutes. The supernatant was discarded, and 200 μl/well of the cell washing buffer was added thereto and then mixed, followed by centrifugation at 1500 RPM for 5 minutes. 80 μl/well of the cell washing buffer was added and mixed, followed by flow cytometry.
The affinity of the soluble scFv to the mucin1-expressing cells was confirmed by PE MFI values from the results of the flow cytometry. Each cell line without soluble scFv was stained with another fluorescent antibody (Goat anti-human IgG Fc-biotin antibody, PE-Streptavidin), which was used as a negative control value, and each cell line was treated with G03 at a concentration of 380 μg/mL, which was used as a positive control value, and MFI value was corrected as follows: […]

Row | Binder | EC50 [µg/mL]
11 | B11 | 1.96
12 | B12 | 1.38
13 | B13 | 3.46
14 | B14 | 4.78
15 | B15 | 1.47
16 | B16 | 1.73

From patent publication US20250281533A1 (LG CHEM, published 2025)
